Numbering of substitutions follows the chain as printed.
B1: H12B12: natural Gardnerella prophage endolysin from strain 3549624 (protein)
chain: MSKKGIDVSVWQGDIDFNAVKASGVEFVIIRAGYGIGHKDKWFEENYRKAKTAGLDVGSYWYSYASSAGEVALEAQSCVNILSGKSFEYPVYFDLEEKSQLNRGRDFCDSLITSFCNKLEACGYYAGFYTSLSVANNLVSSHVRDRYALWIAQWNTHCSYQGSYGLWQYSSSGSVNGIAGRVDMDYAYVDYPSVIKNAGLNGYQNGGSYTAPQTSSIDEVAREVINGDWGNGIERKNRLTSAGYDYTSVQNKVNELLGVKAYRKSVDELAREVIRGTWGNGKTRKQRLTQAGYDYNAVQKRVNELL
modifications: EL12_strain_3549624_non-prophage
B2: H3B3: natural Gardnerella prophage endolysin from strain Gv18-4 (protein)
chain: MSKKGIDVSVWQGDIDFNSVKASGVEFVIIRAGYGIGHKDKWFEENYRKAKTAGLDVGSYWYSYASSAGEASEEAQSCVNILSGKSFEYPIYFDLEEKSQLNRGRDFCDSLITSFCNKLEACGYYAGFYTSLSVANNLVSSHVRDRYALWIAQWNTHCSYQGSYGLWQYSSSGSVNGIAGRVDMDYAYVDYPSVIKNAGLNGYQNGGSYTAPQTSSIDEVAREVINGDWGNGNDRKNRLISAGYDYASVQNKVNELLGVKAYRKSVDELAREVIRGTWGNGSMRKHRLTQAGYDYDAVQKRVNELL
modifications: EL3_strain_Gv18-4
B3: H1B1: natural Gardnerella prophage endolysin from strain HMP9231 (protein)
chain: MSKKGIDVSEWQGDIDFNAVKASGVEFVIIRAGYGIGCKDKWFEQNYRKAKTAGLDVGAYWYSYANSGFEAAEEAQSLMNMLSGKSFEYPVYFDLEEKSQLNRGRAFCDSLITSFCNKLEACGYYAGFYTSLSTANNLVSAHVRNRYALWIAQWNTHCNYQGSYGLWQYSSNGSVPGVAGRVDMDYAYVDYPSIIKNAGLNGCKNGGSDQAARTSSIDEVAREVINGAWGNGSTRKQRLTSAGYDYASVQNKVNELLGVKACRKSVDELAREVIRGAWGNGSTRKQRLAQAGYDYDTVQKRVNELL
modifications: EL1_strain_HMP9231
notes: natural Gardnerella prophage endolysin from strain HMP9231
B4: H4B4: natural Gardnerella prophage endolysin from strain Gv5-1 (protein)
chain: MSKKGIDVSEWQGDIDFNAVKASGVEFVIIRAGYGIGCKDKWFEQNYRKAKTCGLDVGAYWYSYANSGFEAAEEAQSCVNMLSGKSFEYPVYFDLEEKSQLNRGRAFCDSLITSFCSKLETYGYYAGFYTSLSVVNNLVSAHVRDRYALWIAQWNTHCSYQGSYGLWQYSSSGSVPGVAGRVDMDYAYVDYPSIIKNVGLNGCKNGGSDQATRTSSIDEVAREVINGAWGNGNERKQRLTSAGYDYASVQNKVNKLLGVKAYRKSVDELAREVIRGTWGNGNERKQRLAQAGYDYDTVQKRVNELL
modifications: EL4_strain_Gv5-1
B5: H2B2: natural Gardnerella prophage endolysin from strain Gv18-4 (protein)
chain: MSKRGIDVSEWQGDIDFNAVKASGVEFVIIRAGYGIGCKDKWFEQNYRKAKTCGLDVGAYWYSYANSGFEAAEEAQSCVNMLSGKSFEYPVYFDLEEKSQLNRGRAFCDSLITGFCNKLESCGYYAGFYTSLSTANNLVSAHVRNRYALWIAQWNTHCSYQGSYGLWQYSSSGSVPGVAGRVDMDYAYVDYPSIIKNVGLNGCKNGGSDQAARTSSIDEVAREVINGAWGNGNERKQRLTSAGYDYASVQNKVNELLGVKACRKSVDEIAREVIRGTWGNGSTRKQRLTQAGYDYDTVQKRVNELL
modifications: EL2_strain_Gv18-4
B6: H5B5: natural Gardnerella prophage endolysin from strain JCP7276 (protein)
chain: MSKKGIDVSEWQGDIDFNAVKASGVEFVIIRAGYGIGCKDKWFEQNYRKAKTAGLDVGAYWYSYANSSSEAAEEAQSCANMLSGKSFEYPVYFDLEEKSQLNRGRAFCDSLITGFCSKLEACGYYAGFYTSLSTANNLVSAHVRNRYALWIAQWNTHCSYQGSYGLWQYSSNGSVPGVAGRVDMDYAYKDYPSIIKNAGLNGCKNGGSDQAARTSSIDEVAREVINGAWGNGNERKQRLTQAGYDYTSVQNKVNKLLGVKACRKSVDELAREVIRGTWGNGNERKNRLTQAGYDYDTVQKRVNELL
modifications: EL5_strain_JCP7276
notes: natural Gardnerella prophage endolysin from strain JCP7276
B7: H7B7: natural Gardnerella prophage endolysin from strain AMD (protein)
chain: B6 chain with S68A, G114S, A121T, C122Y, A141S, N172S
modifications: EL7_strain_AMD
notes: natural Gardnerella prophage endolysin from strain AMD
B8: H11B11: natural Gardnerella prophage endolysin from strain JCP8017A (protein)
chain: MSKRGIDVSVWQGDIDFNAVKASGVEFVIIRAGYGIGHKDKWFEQNYRKAKTTGLDVGAYWYSYASSAGEAAEEAQSCVNILSGKSFEYPVYFDLEEKSQLNRGRDFCDSLITSFCNKLETYGYYAGFYTSLSVANNLVSSHVRDRYALWIAQWNTHCDYQGSYGLWQYSSSGSVDGIAGRVDMDYTYVDYPSVIKKAGLNGYKNGGSYTAPQTSSIDEVAREVINGDWGNGNERKNRLTSAGYDYTSVQNKVNELLGVKAYRKSVDELAREVIRGTWGNGSTRKQRLTQAGYDYDAVQKRVNELL
modifications: EL11_strain_JCP8017A
notes: natural Gardnerella prophage endolysin from strain JCP8017A
B9: H10B10: natural Gardnerella prophage endolysin from strain G30-4 (protein)
chain: MSKRGIDVSVWQGDIDFNAVKASGVEFVIIRAGYGIGHKDKWFEENYRKAKTVGLDVGAYWYSYASSAGEASEEAQSCVNILSGKSFEYPVYFDLEEKSQLNRGRDFCDSLITSFCNKLEACGYYAGFYTSLSVANNLVSSHVRDRYALWIAQWNTHCSYQGSYGLWQYSSSGSVNGIAGRVDMDYAYVDYPSVIKNAGLNGYKNGGSYTAPQISSIDEVAREVINGDWGNGNERKQRLTSAGYDYASVQNKVNELLGVKAYRKSVDELAREVIRGTWGNGSTRKQRLTQAGYDYNAVQKRVNELL
modifications: EL10_strain_G30-4

Test system: G. leopoldii strain Gv_11
Experiment: Quantitative reduction in viable CFU assay in bacterial suspension
Format: cell-based, Gardnerella leopoldii
Settings: 5 hours, pH 5.0, anaerobic, 10 ul endolysin (0.2 mg/ml where possible) + 90 ul 5e7 CFU/ml, average of triplicate
Method: The lysis activity on the four main species of Gardnerella of 91 constructs (natural and domain-swapped endolysins) was quantitatively assessed using the method described in Reference Example 2. Briefly, 90 ul 5e7 CFU/ml of the indicated strain were incubated for 5 hours at pH 5.0 under anaerobic conditions with 10 ul endolysin (concentration adjusted to 0.2 mg/ml where possible, see Table 4).
The results are shown in FIGS. 8A to 8D together with Tables 5A to 5C. In FIGS. 8A to 8D, the logarithmic Y axis depicts the count of surviving cells. The dotted line indicates the limit of detection (LOD) given by plating of 2 ul of the reaction mix (500 CFU/ml). Each combination of the natural 10 H-domains and the natural 9 B-regions was assessed, including the natural endolysins (H1B1, H2B2, H3B3, etc.), plus H6B6. […] The activity of each construct was measured on each of the 4 main Gardnerella species G. vaginalis sensu stricto, G. leopoldii, G. piotii, and G. swidsinkii. All conditions have been measured in triplicate. The survival after 5 hours incubation at pH 5.0 under anaerobic conditions with endolysins vs. buffer was measured by quantitative plating. The values indicate the log 10 of the ratio of surviving CFU for treated vs. untreated cells. The average of the triplicate measurements is used. In tables 5A and 5B, high negative log 10 values, e.g. −6.7, −5.5, −4.8 etc. are associated with high enzymatic activity, while log 10 values closer to zero or even positive log 10 values are associated with low or no enzymatic activity. […] Inversely, a reduction value of −3.7 means a 10^3.7-fold (=5012-fold) reduction of viable CFU in treated sample vs. untreated control.
Gardnerella cells were recovered from cryo stock by plating on Chocolate Agar plates (Beckton Dickinson) and incubating for 48 h at 37° C. under anaerobic conditions. For Lactobacilli, BD Schaedler/5% sheep blood agar plates were used instead. Colonies were scraped from the plate, resuspended in Hardy Broth or NYC-III-HS-5.0 at the pH as indicated, and the suspension adjusted to OD (610 or 620 nm as indicated) 0.1. It has to be noted that two Tecan Microplate readers, having respectively a 610 nm or 620 nm filter, have been used interchangeably in the experiments. Although it doesn't make any difference for the experiments, the exact wavelength used is specified in each example. If not stated otherwise, 90 μl cell suspension was mixed with 10 μl endolysin solution, for the different species/endolysin combinations, in 384-well plates. OD(610-620 nm as indicated) was measured at the beginning of the reaction and at the end, either as two measurement points or as a continuous kinetic in a Tecan F200 Microplate reader. The reactions were incubated for 5 hours (or otherwise the time indicated) at 37° C. under anaerobic, micro-aerophilic or aerobic conditions as indicated. Anaerobic conditions intend that oxygen was fully depleted from the container in which the bacteria are incubated (Sigma-Aldrich anaerobic jar or sealable lunch box) with an anaerobic sachet, and the lack of oxygen was confirmed with an anaerobic indicator inside the container. Where micro-aerophilic conditions are indicated, the candle-in-a-jar method was used (tea candle lit in an appropriate sealable container, which reduces oxygen levels until the flame dies out). Then each well was diluted in 5 steps (10^−1 to 10^−5) using 96-U-well bottom plates, and 2 μl of each dilution of each reaction mix are plated on BD Chocolate agar plates or BD Schaedler/5% sheep blood agar plates for Gardnerella and Lactobacilli, respectively, for detecting and quantifying surviving CFU. Detection plates were incubated at 37° C. for 48 hours under anaerobic conditions.

Row | Molecule | log 10 of the ratio of surviving CFU for treated vs. untreated cells [log 10]
1 | B1 | −1.0
2 | B2 | −2.0
3 | B3 | −1.3
4 | B4 | −0.5
5 | B5 | −1.1
6 | B6 | 0.3
7 | B7 | −2.1
8 | B8 | −1.6
9 | B9 | −1.6
